Data as given in article PMC4139162.

Target: KcsA potassium channel, L90C, chymotrypsin-truncated (UniProt P0A334)
Test: crystal structure

- stoichiometry N: 4
Substance: KcsA potassium channel, L90C, chymotrypsin-truncated (from UniProt P0A334 1-160) (natural protein)
